Laboratory results published in patent publication US7608586B2, “Soluble low-density lipoprotein receptor related protein binds directly to Alzheimer's amyloid-beta peptide” (The University of Rochester, priority 2003, dated 2009).
Entries after “also recorded” stand apart in the source; their conditions may differ.

Columns and labels:
[1] = target: T1, LRP-1 on isolated brain capillaries (Mus musculus, UniProt Q91ZX7); test: Brain capillary uptake (in vitro clearance of 125I-Aβ by isolated brain capillaries); assay type: cell-based; conditions: for lower affinity (Ki) for LRP-mediated clearance on brain capillaries than Aβ1-40: 125I-Aβ1-40 as test-ligand, unlabeled peptide 40 nM
T1 construct: from tissue; host or cells: isolated brain capillaries of wild-type and RAP null mice

LRP-1 cluster II = target: T2, LRP-1 cluster II (Homo sapiens, UniProt Q07954); test: Surface plasmon resonance binding of Aβ peptides to immobilized LRP-1 cluster II; conditions: RAP 500 nM
T2 construct: cluster II (i.e., Arg786 to Leu1165 as numbered in Herz et al., 1988); made in house; host or cells: stably transfected baby hamster kidney (BHK) cells
T2 sequence (Q07954 786-1165): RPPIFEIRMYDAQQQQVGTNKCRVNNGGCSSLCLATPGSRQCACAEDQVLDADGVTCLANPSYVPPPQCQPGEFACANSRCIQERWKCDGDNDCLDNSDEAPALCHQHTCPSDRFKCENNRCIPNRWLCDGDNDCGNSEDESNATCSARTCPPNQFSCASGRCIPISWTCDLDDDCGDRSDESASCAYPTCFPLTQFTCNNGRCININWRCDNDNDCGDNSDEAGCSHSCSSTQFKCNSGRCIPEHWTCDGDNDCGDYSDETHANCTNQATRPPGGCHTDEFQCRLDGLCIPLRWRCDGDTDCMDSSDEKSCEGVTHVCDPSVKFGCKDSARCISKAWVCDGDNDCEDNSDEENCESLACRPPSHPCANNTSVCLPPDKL
Procedure: (§1) RAP was used at 500 nM. Ligand solution was replaced with buffer to initiate dissociation. […] Apparent affinity constants Kd(app) were inferred from the ratio koff(app)/kon(app). Data are based on three to five measurements using six to nine different concentrations for each measurement. Data are presented as the mean±SEM. Analysis was performed using BIACORE X biosensor system (Uppsala, Sweden) and BIA evaluation 3.0 software (Biocore, Sweden).

LRP-1 cluster IV = target: T3, LRP-1 cluster IV (Homo sapiens, UniProt Q07954); test: Surface plasmon resonance binding of Aβ peptides to immobilized LRP-1 cluster IV; conditions: RAP 500 nM
T3 construct: cluster IV (i.e., His3313 to Leu3759 as numbered in Herz et al., 1988); made in house; host or cells: stably transfected baby hamster kidney (BHK) cells
Procedure: as §1

[2] = target: T4, LRP-1 at the blood-brain barrier (Mus musculus, UniProt Q91ZX7); test: Brain clearance studies: efflux of 125I-Aβ from brain ISF across the blood-brain barrier; assay type: in vivo; conditions: RAP 1 μM, αLRP-1 60 μg/ml, NI IgG 60 μg/ml, 30 min
T4 construct: from tissue; host or cells: living mouse brain (C57BL/6, RAP null and littermate controls), microinjection into brain ISF
T4 sequence (Q91ZX7 20-4545): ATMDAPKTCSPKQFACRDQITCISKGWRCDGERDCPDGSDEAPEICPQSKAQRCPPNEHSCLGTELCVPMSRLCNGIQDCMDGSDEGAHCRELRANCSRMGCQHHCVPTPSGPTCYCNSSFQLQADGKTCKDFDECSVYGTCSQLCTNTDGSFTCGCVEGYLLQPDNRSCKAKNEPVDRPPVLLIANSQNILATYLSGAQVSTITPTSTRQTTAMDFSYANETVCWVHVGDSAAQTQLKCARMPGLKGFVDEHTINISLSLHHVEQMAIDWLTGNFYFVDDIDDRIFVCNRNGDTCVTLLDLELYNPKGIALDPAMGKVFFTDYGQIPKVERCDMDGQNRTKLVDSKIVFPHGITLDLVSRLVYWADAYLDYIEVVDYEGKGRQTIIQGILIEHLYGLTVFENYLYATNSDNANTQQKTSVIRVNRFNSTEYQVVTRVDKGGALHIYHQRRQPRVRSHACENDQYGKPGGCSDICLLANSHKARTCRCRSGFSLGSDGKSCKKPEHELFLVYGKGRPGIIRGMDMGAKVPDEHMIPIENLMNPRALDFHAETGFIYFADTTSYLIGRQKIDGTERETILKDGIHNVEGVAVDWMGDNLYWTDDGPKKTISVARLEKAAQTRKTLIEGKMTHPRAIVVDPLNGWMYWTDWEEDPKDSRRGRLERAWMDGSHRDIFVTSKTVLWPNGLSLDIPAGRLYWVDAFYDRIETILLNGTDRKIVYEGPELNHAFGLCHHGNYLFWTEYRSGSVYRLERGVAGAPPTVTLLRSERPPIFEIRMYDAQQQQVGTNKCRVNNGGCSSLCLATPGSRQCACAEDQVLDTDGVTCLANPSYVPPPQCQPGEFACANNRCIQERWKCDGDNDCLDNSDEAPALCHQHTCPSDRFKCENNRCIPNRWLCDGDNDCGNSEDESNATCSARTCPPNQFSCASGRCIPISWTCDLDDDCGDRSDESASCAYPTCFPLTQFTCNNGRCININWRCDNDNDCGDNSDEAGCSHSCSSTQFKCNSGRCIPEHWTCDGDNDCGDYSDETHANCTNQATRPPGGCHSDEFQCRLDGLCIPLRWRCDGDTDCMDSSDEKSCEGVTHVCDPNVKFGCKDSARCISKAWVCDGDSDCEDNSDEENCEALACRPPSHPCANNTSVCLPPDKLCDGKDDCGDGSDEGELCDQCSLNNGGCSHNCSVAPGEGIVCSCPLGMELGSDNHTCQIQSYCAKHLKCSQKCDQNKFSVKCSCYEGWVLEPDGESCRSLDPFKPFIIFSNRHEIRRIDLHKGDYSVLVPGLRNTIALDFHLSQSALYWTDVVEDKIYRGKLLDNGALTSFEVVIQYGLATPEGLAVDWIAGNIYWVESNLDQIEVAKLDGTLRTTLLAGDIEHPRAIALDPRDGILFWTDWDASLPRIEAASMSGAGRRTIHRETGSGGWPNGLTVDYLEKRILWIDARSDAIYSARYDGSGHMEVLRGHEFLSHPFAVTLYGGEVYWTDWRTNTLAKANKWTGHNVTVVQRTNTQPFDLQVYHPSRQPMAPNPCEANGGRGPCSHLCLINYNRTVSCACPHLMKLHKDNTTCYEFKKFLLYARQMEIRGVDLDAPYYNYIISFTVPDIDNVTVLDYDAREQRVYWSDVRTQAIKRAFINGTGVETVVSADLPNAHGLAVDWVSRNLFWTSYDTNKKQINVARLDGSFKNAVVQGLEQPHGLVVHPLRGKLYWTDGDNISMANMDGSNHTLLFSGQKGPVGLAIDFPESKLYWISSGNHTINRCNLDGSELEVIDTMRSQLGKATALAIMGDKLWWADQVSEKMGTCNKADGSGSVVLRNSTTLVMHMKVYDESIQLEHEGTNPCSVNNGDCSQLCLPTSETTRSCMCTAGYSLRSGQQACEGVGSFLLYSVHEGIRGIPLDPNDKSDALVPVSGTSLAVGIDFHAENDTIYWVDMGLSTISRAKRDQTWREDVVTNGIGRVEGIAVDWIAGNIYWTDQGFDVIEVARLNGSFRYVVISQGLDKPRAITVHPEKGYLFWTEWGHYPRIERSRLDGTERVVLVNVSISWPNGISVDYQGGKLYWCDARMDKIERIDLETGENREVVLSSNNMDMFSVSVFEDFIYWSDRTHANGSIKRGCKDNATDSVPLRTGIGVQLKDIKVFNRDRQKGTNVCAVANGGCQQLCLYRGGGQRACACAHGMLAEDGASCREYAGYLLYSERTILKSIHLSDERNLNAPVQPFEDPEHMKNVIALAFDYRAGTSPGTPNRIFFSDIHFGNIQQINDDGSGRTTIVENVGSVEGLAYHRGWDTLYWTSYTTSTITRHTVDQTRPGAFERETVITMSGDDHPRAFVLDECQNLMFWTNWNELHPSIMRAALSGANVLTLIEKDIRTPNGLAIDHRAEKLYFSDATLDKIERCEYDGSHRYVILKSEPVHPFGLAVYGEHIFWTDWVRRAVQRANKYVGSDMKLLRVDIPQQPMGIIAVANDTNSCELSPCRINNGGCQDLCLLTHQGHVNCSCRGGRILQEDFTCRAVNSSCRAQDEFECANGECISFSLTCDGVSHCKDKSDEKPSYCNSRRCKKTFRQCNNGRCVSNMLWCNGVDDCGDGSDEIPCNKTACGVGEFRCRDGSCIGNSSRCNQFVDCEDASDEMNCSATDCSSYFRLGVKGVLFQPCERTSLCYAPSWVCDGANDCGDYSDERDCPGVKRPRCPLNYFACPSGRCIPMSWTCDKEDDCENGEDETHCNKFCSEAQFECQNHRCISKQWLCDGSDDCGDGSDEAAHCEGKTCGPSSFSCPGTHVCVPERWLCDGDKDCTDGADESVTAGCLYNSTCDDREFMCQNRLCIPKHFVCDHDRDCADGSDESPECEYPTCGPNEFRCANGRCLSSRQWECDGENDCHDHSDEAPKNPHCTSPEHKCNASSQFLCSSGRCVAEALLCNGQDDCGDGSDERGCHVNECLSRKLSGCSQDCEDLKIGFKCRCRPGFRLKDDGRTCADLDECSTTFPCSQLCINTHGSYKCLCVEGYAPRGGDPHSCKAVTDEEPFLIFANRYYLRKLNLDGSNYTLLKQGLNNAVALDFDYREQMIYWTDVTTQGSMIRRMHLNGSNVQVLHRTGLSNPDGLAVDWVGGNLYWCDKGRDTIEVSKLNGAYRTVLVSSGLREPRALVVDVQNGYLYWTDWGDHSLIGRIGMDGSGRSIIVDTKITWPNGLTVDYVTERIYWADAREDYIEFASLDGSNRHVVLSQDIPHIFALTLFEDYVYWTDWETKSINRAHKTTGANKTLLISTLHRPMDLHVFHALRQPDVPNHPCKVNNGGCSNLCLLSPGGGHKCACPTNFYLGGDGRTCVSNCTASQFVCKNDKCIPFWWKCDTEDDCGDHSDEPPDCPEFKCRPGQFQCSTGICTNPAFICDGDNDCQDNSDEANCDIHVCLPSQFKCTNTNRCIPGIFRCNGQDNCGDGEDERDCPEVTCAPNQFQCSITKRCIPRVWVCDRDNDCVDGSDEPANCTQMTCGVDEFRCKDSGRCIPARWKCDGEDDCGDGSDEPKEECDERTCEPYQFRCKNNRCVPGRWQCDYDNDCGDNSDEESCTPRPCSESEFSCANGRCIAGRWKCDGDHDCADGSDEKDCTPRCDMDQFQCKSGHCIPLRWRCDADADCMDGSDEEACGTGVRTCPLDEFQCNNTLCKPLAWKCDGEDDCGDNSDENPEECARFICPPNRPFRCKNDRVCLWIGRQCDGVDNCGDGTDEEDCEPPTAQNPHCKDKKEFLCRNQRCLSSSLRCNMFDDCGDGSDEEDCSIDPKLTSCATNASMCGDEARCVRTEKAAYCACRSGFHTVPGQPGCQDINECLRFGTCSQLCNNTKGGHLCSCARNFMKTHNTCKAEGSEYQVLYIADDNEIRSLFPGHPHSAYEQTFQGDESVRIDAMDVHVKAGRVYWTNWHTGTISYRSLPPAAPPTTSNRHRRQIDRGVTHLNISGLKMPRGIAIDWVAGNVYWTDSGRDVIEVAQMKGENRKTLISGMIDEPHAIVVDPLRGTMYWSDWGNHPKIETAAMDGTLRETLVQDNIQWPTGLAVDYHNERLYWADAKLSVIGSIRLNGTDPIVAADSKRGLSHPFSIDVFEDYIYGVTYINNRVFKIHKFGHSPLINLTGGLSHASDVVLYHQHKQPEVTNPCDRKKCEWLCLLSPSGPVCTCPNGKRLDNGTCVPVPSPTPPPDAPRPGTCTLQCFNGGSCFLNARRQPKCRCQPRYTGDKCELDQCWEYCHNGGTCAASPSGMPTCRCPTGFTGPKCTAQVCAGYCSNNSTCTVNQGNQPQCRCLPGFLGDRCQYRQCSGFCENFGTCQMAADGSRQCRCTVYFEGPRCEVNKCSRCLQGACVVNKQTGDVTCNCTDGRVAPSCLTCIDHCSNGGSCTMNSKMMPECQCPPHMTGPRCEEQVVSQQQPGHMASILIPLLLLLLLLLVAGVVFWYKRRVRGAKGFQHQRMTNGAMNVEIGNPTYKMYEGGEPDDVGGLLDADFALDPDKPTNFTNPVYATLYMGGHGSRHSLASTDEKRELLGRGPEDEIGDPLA

T1 sequence (Q91ZX7 20-4545): as above
T3 sequence (Q07954 3313-3759): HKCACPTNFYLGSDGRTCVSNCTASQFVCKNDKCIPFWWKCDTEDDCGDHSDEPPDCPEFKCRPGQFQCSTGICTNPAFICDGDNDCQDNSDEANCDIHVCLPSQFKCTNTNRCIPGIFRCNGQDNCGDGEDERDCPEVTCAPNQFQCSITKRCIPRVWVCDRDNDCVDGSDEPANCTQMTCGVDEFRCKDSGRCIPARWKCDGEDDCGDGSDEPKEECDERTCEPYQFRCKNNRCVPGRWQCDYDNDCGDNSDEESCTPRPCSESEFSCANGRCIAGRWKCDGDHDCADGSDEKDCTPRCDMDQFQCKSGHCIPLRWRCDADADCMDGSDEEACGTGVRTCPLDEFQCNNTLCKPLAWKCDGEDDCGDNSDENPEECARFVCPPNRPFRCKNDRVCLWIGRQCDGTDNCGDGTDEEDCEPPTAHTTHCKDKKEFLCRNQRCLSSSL

lower affinity (Ki) for LRP-mediated clearance on brain capillaries than Aβ1-40 [1] [fold]	Binding of Aβ peptides to LRP-1 cluster II in the presence of RAP (LRP-1 cluster II)	Binding of Aβ peptides to LRP-1 cluster IV in the presence of RAP (LRP-1 cluster IV)	effect on Aβ elimination from brain [2]	effect on 125I-Aβ1-40 uptake before (total) and after mild acid wash ([1]; RAP 500 nM, 37° C.)	Substance	effect on Aβ1-40 brain capillary uptake ([1]; Aβ1-40 at 120 nM, RAP 1 μM, αLRP-1 60 μg/ml, NI IgG 60 μg/ml)
6	–	–	–	–	Dutch Aβ1-40: Dutch (E22Q) mutant Aβ1-40 peptide	–
18	–	–	–	–	Dutch Aβ1-42: Dutch (E22Q) mutant Aβ1-42 peptide	–
–	abolished	abolished	almost completely abolished	blocked	RAP: human recombinant receptor-associated protein, an LRP-1 antagonist	completely inhibited; also recorded: abolished
